From article PMC5374404, “A key centriole assembly interaction interface between human PLK4 and STIL appears to not be conserved in flies” (Biology Open, 2017)
Values joined by “and” are separate entries in the source; they are usually repeats but may differ in a detail not shown here. Equal entries are not always repeated. Each block holds one binder with its values, some of them ahead of it. Ends that are not written are not given here.

Columns and labels:
[1] = biological target: T1, Drosophila Sak/PLK4 Polo-Box-3 domain (aa 657-745), tag cleaved (Drosophila melanogaster (Fruit fly), UniProt O97143); assay: analytical gel filtration
T1 chain: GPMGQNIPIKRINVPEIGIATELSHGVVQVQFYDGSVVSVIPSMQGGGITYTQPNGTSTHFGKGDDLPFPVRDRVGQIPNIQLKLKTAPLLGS

[2] = biological target: the molecule itself; assay: crystal structure; STIL 726-750 alone, 0.91 Å; sitting drop, 19°C; tetramer (dimer of dimers) generated by crystallographic symmetry
[3] = biological target: the molecule itself; assay: SEC-MALS; apo HsPB3 (aa 884-970) alone, 100 µl at 200 µM over a Superdex 200 10/300 column; 50 mM Tris pH 7.5, 150 mM NaCl, 2 mM DTT
[4] = biological target: the molecule itself; assay: SEC-MALS; STIL CCD (aa 717-758) alone, 100 µl injected at 62 to 4000 µM over an S200 10/300 column; 50 mM Tris pH 7.5, 150 mM NaCl, 2 mM DTT, 0.4 ml/min

binding result [1]: no binding
Binder: NKSDLAALVSLVESVRHEQQQLRNLCEMILEQQQRAK (protein, also: His-lipoyl-tagged) [His-lipoyl-tagged Drosophila Ana2 coiled-coil domain (aa 193-229)]

B1: human STIL coiled-coil domain (aa 726-750), tag cleaved (domain or fragment)
chain: GGSLTEQDRQLRLLQAQIQRLLEAQSLM
notes: remnant left at the N-terminus of the CCD after TEV cleavage of the His-lipoyl tag; STIL, human, coiled-coil domain, residues 726-750; also called STIL^726-750; HsCCD; source: E. coli C41, purified (Ni-NTA, TEV cleavage, reverse Ni-NTA, size exclusion); not shown: His, N-terminal, cleaved; lipoyl domain (B. stearothermophilus dihydrolipoamide acetyltransferase), N-terminal, cleaved
stoichiometry N [2]: 4

B2: human PLK4 Polo-Box-3 domain (aa 884-970), tag cleaved (domain or fragment)
chain: GPMGSAQLLKSVFVKNVGWATQLTSGAVWVQFNDGSQLVVQAGVSSISYTSPNGQTTRYGENEKLPDYIKQKLQCLSSILLMFSNPTPNFH
notes: remnant left at the N-terminus of the PB3 construct after 3C cleavage of the His-MBP tag; PLK4, human, Polo-Box-3 domain, residues 884-970; from an E. coli codon-optimised cDNA (Geneart); also called HsPB3; apoHsPB3; source: E. coli B834, purified (Ni-NTA, 3C cleavage, reverse Ni-NTA, size exclusion); not shown: His, N-terminal, cleaved; MBP, N-terminal, cleaved
stoichiometry N [3]: 2

B3: human STIL coiled-coil domain (aa 717-758), tag cleaved (domain or fragment)
chain: GGSGLSPDAYRFLTEQDRQLRLLQAQIQRLLEAQSLMPCSPKTTA
notes: remnant left at the N-terminus of the CCD after TEV cleavage of the His-lipoyl tag; STIL, human, coiled-coil domain, residues 717-758; also called HsCCD; STIL CCD; source: E. coli C41, purified (Ni-NTA, TEV cleavage, reverse Ni-NTA, size exclusion); not shown: His, N-terminal, cleaved; lipoyl domain (B. stearothermophilus dihydrolipoamide acetyltransferase), N-terminal, cleaved
stoichiometry N [4]: ≥ 2 and < 4
